These results are taken from patent US20230303994.

B1: trypsin variant SEQ ID NO: 97 (protein)
chain: IVGGYTCAANSIPYQVSLNSGSHRCGGSLINSQWVVSAAHCYKPRIQVRLGEHNIHVLEGNEQFINAAKIITHPNFNPNTLDNDIMLIKLSSPATLNSAVATVSLPTSCAAAGTECLISGWGNTASSGSSMPSLLQCLKAPVLSDSSCKSSYPGQITGNMICVGFLEGGADACQGDSGGPVVCNGQLQGIVSSGYGCAQKNKPGVYTKVCNYVNWIQQTIAAN
With B1, in the series with pre-pro-human insulin, the “Activity PPI cleavage” value is “yes” and the Selectivity is given as greater than 90%. In the series with pre-pro-insulin glargine, the Purity Insulin Glargine turned out to be 89.4 area %, the Yield was greater than 90%, the desArg is less than 0.5 area % and the desThr was determined as 1.2 area %.

B2: trypsin variant SEQ ID NO: 102 (protein)
chain: IVGGYTCAANSIPYQVSLNSGSHRCGGSLINSQWVVSAAHCYKPRIQVRLGEHNIHVLEGNEQFINAAKIITHPNFNPNTLDNDIMLIKLSSPATLNSHVATVSLPTSCAAAGTECLISGWGNTSSSGSSMPSLLQCLKAPVLSDSSCKSSYPGQITGNMICVGFLEGGADACQGDSGGPVVCNGQLQGIVSSGYGCAQKNKPGVYTKVCNYVNWIQQTIAAN
As to B2, in the series with pre-pro-human insulin, the “Activity PPI cleavage” value is given as “yes” and the Selectivity is listed as greater than 90%. Also, in the series with pre-pro-insulin glargine, the Purity Insulin Glargine was determined as 88.7 area %, the Yield is greater than 90%, the desArg was 0.4 area % and the desThr turned out to be 1.2 area %.

B3: trypsin variant SEQ ID NO: 101 (protein)
chain: IVGGYTCAANSIPYQVSLNSGSHRCGGSLINSQWVVSAAHCYKSRIQVRLGEHNIHVLEGNEQFINAAKIITHPNFNPNTLDNDIMLIKLSSPATLNSNVATVSLPTSCAAAGTECLISGWGNTSSSGSSMPSLLQCLKAPVLSDSSCKSSYPGQITGNMICVGFLEGGADACQGDSGGPVVCNGQLQGIVSSGYGCAQKNKPGVYTKVCNYVNWIQQTIAAN
Consider B3, for which, in the series with pre-pro-human insulin, the “Activity PPI cleavage” value is “yes” and the Selectivity was greater than 90%. In the series with pre-pro-insulin glargine, this protein had a Purity Insulin Glargine of 89.2 area %, a Yield greater than 90%, a desArg of 1 area % and a desThr of 0.4 area %.

B4: trypsin variant SEQ ID NO: 99 (protein)
chain: IVGGYTCAANSIPYQVSLNSGSHRCGGSLINSQWVVSAAHCYKSRIQVRLGEHNIHVLEGNEQFINAAKIITHPNFNPNTLDNDIMLIKLSSPATLNSNVATVSLPTSCAAAGTECLISGWGNTSSSGSSYPSLLQCLKAPVLSDSSCKSSYPGQITGNMICVGFLEGGADACQGDSGGPVVCNGQLQGIVSSGYGCAQKNKPGVYTKVCNYVNWIQQTIAAN
In the case of B4, in the series with pre-pro-human insulin, the “Activity PPI cleavage” value is recorded as “yes” and the Selectivity is on record as greater than 80%. In the series with pre-pro-insulin glargine, this protein registered a Purity Insulin Glargine of 89.2 area %, a Yield greater than 90%, a desArg of 0.9 area % and a desThr of 1 area %.

B5: trypsin variant SEQ ID NO: 100 (protein)
chain: IVGGYTCAANSIPYQVSLNSGSHRCGGSLINSQWVVSAAHCYKPRIQVRLGEHNIDVLEGNEQFINAAKIITHPNFNPNTLDNDIMLIKLSSPATLNSHVATVSLPTSCAAAGTECLISGWGNTCSSGSSMPSLLQCLKAPVLSDSSCKSSYPGQITGNMICVGFLEGGADACQGDSGGPVVCNGQLQGIVSSGYGCAQKNKPGVYTKVCNYVNWIQQTIAAN
For the protein B5, in the series with pre-pro-human insulin, the “Activity PPI cleavage” value was “yes” and the Selectivity is on record as greater than 90%. Besides, in the series with pre-pro-insulin glargine, the Purity Insulin Glargine was 80 area %, the Yield is greater than 80%, the desArg turned out to be 0.7 area % and the desThr worked out at 0.3 area %.

B6: trypsin variant SEQ ID NO: 98 (protein)
chain: IVGGYTCAANSIPYQVSLNSGSHRCGGSLINSQWVVSAAHCYKPRIQVRLGEHNIHVLEGNEQFINAAKIITHPNFNPNTLDNDIMLIKLSSPATLNSAVATVSLPTSCAAAGTECLISGWGNTASSGSSMPSLLQCLKAPVLSDSSCKSSYPGQITGNMICVGFLEGGADSCQGDSGGPVVCNGQLQGIVSSGYGCAQKNKPGVYTKVCNYVNWIQQTIAAN
For B6, in the series with pre-pro-human insulin, the “Activity PPI cleavage” value is “yes” and the Selectivity is recorded as greater than 90%. In addition, in the series with pre-pro-insulin glargine, the Purity Insulin Glargine was 89.4 area %, the Yield is greater than 90%, the desArg turned out to be 0.9 area % and the desThr was 2.7 area %.
